# Residue numbers refer to the chain shown, from its start.
# T1: recombinant human B7H3 extra cellular domain (ECD) protein (human, UniProt Q5ZPR3 29-461)
# T1 construct: also called h-B7H3 ECD; h-B7H3; not shown: C-terminal poly-histidine tag or Fc tag
# T1 sequence: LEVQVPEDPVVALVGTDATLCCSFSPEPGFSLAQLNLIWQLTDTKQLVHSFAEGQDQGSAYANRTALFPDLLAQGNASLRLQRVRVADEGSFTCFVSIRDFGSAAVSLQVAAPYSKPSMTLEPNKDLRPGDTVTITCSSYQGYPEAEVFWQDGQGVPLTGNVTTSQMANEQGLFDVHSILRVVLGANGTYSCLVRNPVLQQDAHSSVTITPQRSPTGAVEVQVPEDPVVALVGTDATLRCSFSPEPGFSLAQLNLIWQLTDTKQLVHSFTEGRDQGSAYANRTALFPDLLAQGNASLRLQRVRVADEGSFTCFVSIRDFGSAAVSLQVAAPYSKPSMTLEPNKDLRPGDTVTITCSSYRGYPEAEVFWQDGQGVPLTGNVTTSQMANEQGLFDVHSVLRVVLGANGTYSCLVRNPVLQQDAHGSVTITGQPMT
# T2: human B7H3 on A498 cells (human, UniProt Q5ZPR3 29-534)
# T2 construct: Endogenous B7H3 of A498 human kidney carcinoma cells; also called B7H3 positive A498 cells; human B7H3+ A498 cells
# T2 sequence: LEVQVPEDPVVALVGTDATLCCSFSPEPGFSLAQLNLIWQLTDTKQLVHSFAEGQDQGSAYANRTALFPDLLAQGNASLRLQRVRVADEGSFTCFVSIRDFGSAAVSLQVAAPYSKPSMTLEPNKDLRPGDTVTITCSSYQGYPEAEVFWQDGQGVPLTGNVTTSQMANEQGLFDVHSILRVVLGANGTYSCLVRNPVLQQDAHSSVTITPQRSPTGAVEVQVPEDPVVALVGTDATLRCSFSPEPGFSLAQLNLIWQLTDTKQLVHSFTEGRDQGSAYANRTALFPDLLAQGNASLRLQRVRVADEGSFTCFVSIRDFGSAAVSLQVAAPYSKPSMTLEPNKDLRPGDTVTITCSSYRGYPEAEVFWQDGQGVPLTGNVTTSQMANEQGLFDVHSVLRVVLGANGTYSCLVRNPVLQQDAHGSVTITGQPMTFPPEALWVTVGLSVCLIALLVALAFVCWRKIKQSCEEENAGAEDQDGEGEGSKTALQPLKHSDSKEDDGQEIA
# B1: 14C4 VHH (VHH)
# VHH: QVQLVESGGGVVQAGGSLRLSCAASGRTFSSYGMGWFRQAPRKARGFVGAVTSAGSTWYEDSVKGRFTISRDNAKNTVYLQMNSLKPEDTAVYYCAATTIATMPWLMVSSRYAYWGQGTQVTVSS
# notes: VHH secreted into SS320 supernatant, as screened by ELISA
# B2: 5H8 VHH (VHH)
# VHH: QVKLEESGGGQVQAGDSRTLSCVASGRTFSSDSMAWFREAPGKARGFVAVVSRSAGSTWYEDSVKGRFTISRDNAKNTVYLQMNSLKPEDTAVYYCAATDIATMPWLMVSSRYDYWGQGTQVTVSS
# notes: VHH secreted into SS320 supernatant from phagemid pADL-23c, as screened by ELISA
# B3: 19c10-V2 (Fc fusion)
# chain: EVQLVESGGGLVQPGGSLRLSCAASGSTFSKYAMGWFRQAPRKARGFVGAVTSAGSTWYADSVKGRFTISRDNSKNTLYLQMNSLRAEDTAVYYCAATTIATMPWLMVSSRYAYWGQGTLVTVSS
# notes: Humanized FR1, FR3 and FR4; also called humanized 19c10 clone; not shown: purified by protein A and detected with anti-human IgG, so probably a human Fc
# B4: 19c10-V3 (Fc fusion, not shown: a dimerising Fc or GST)
# chain: B3 chain with R42G
# notes: FR2 humanized further from 19c10-V2; detected with anti-human IgG; also called humanized 19c10 clone
# B5: Reference Ab 4 (antibody, V domains shown)
# VH: QVQLQQPGAELVKPGASVKLSCKASGYSFTSYWMHWVKQRPGQGLEWIGMIHPNSGSNNYNEKFKSKATLTVDKSSNTAYMQLSSLTSEDSAVYYCARRLGLHFDYWGQGTTLTVSS
# VL: DIVMTQSQKFMSTPVGDRVSITCKASQNVGTAVAWYQQKPGQSPKLLIYSASNRYTGVPDRFTGSGSGTDFTLTISNMQSEDLADYFCQQYSSYPYTFGGGTKLEIK
# B6: Reference Ab 2 (an h1702 analog) (antibody, V domains shown)
# VH: QVQLQQPGAELVKPGASVKLSCKASGYTFTSYWMHWVKQRPGQGLEWIGMIHPDSGTTNYNEKFRSKATLTVDKSSSTAYMQLSSLTSEDSAVYYCAVYYGSTYWYFDVWGTGTTVTVSS
# VL: DVVMTQTPLSLPVSLGDQAYISCRSSQSLVHINGNTYLHWYRQKPGQSPKLLIYKVSNRFSGVPDRFSGSGSGTDFTLKISRVEAEDLGVYFCSQSTHFPFTFGSGTKLEIK
# What was measured:
# cynomolgus B7H3 = cynomolgus B7H3 (cynomolgus); assay: ELISA on cynomolgus B7H3, OD450
# [1] = molecular target: T1, recombinant human B7H3 extra cellular …; assay: ELISA on human B7H3 (h-B7H3 ECD coated plates), OD450
# human B7H3 on A498 cells [2] = molecular target: T2, human B7H3 on A498 cells; assay: flow cytometry, whole cell binding to B7H3+ A498 cells, MFI
# human B7H3 on A498 cells [3] = molecular target: T2, human B7H3 on A498 cells; assay: flow cytometry, whole cell binding to B7H3+ A498 cells, MFI (FITC)
# human B7H3 on A498 cells [4] = molecular target: T2, human B7H3 on A498 cells; assay: flow cytometry, whole cell binding to B7H3+ A498 cells, MFI; fit value printed for the flat curve of the negative control
# human B7H3 on A498 cells [5] = molecular target: T2, human B7H3 on A498 cells; assay: flow cytometry, whole cell binding to B7H3+ A498 cells, MFI (FITC); remark: listed apart in the source
binder,measurement,setting,value
B1,EC50 (read off the curve),cynomolgus B7H3,~0.06 µg/mL
B2,EC50 (read off the curve),[1],~0.08 µg/mL
B3,EC50,human B7H3 on A498 cells [2],0.537 nM
B4,EC50,human B7H3 on A498 cells [2],1.69 nM
same,EC50,human B7H3 on A498 cells [3],5.52 nM
B5,EC50,human B7H3 on A498 cells [4],40.3 nM
B6,EC50,human B7H3 on A498 cells [5],0.85 nM
